# According to the NTF2 design screens of Basanta et al. (2020):
# Assay: protease stability score; higher = more stable; yeast display proteolysis, trypsin and chymotrypsin;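 further: log10 excess protease needed over predicted unfolded state with 0 meaning unfolded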
row,Sequence,protease stability score
1,DHRAIHLVRENLDARRHNDSKKAREMADKDATFHIGDRFIHGMDSFVKTLTDENREMRIEIERMSYNDRPGRVEVKQDVRENHNGSPKRFTYHAEMHVQGDHVRTQTEHRTD,-0.281
2,DHRALSQVEQFMNALQQGDEKRLMELADPNVKIIIGDKDVHGREEWDRQVHKRRHEIQYEVRRVKMHVNGDTVHVKIRAVATINGKPFEVEYTANFKIDNGHITHIDWQLPDEYLKRVKS,0.062
3,DHRAVEVIKEMFKALQTGDERRIVEMADKDATATVGDKRVHGMKEAAHDIATEFNEMRFQLSIKRVQHSGNNVKADVEATFHHNGKPRKVQVVIVLRLHNGKVQEMSIRNDG,1.17
4,DHRQQVRDIFKEMQDARRKGNEKTLQKLVDPNAKAEYGDKTYHGRENVAKMLLDEAKRVDHFEVHIKTFSIKNGTARVHADVVVKHDGQKRSTDVFYVFRDHNGQMLLVRARTQ,1.38
5,DHRVEEVFRRYLEAFQDNNPEKAMRLVDPNAKLSVGDTTLDGREDIKKFVRTRHNEQRVKYEIKQIEVDGDKIRVVADLKNQHNGTPDRDTVKMSASVRNGKIKDLKQTTDK,-0.132
6,DHSDAEQVHRAIEENNFDELVDLADENVSVTIGDYTLHGREDFKHYQEVLKRQVDNVEFKTIDIQGDKIDRTVEATVNGRRYVARIVVKVKNGKIKSQKVHATDEKQNEQLRENLK,-0.043
7,DHSEVTDVFRKLVKVLRTGDESTAAELFDEDVEFEIGDKTYKGREEAHDLLRQFQDMADHVQLNDVRVQGNKVHAEFRADVNGRELHFTQSAEVHNGKIKKVVIRFTNEEQYREIHS,1.59
8,DHSKHLTNVIKRMQRLFKHGNFSEVAKQADKDVEVRVGDKTYNGRDQYVDSQRKIEHQVDNADLKFQHVDNQGDKIDVIYEFVVVHNGRHEKTTEQAVLSLHNGRVRATKIHDS,-0.102
9,DHSQLEIVIEWVKALQEGDPDKAKKNMDKNVKLDIGDKRLEGRDEVRKEMETMKKSARFDLHIDSYNVHGDHAELRVTFRNDHNGRPKKDRNTIRATAHNGRITYLSVEHTG,0.708
10,DHTAARIAKEIMENQDKGDEDRLRKLLDKDVRLKYGDKEIHGREHAARTLKRERRQIRIDRRIRHVEIQGDEVSIEFDMHVQHNGKPRDRKAVMVFRMQGDKLEEMTQDNTK,0.191
11,DHTADRIIRNLMDALNQNDEDKAVKLMDENVRFRIGDKEYQGRERWKKLLQDWNKHASIRYTVDSMDRRGEKVHVKFELKVNINGNPVTVRVTVEFEIRNGKIKSAVYEMDPDDAKEVWS,0.925
12,DHTELETLARRMVDAMRTGDPDKLAELADPNVKVTYGDKSVHGHEQFTKQMKEFVDQYDHVRVERLKIEGDKVHADLNAEHNGRSSRFIMLITVKNGRVKHLKFKNR,0.472
13,DHTEVKKQNEQVRKALTQGDPKTMKKMFDPNVKLQVGEKSYRGHKDLQKWAEEMHKRVDHARVDSVHARGNHVTVDVVFNINGREKRLTLRVSYHNGRINEVHMTDG,0.745
14,DHTIDEVFKQFETAKNDNDPDQLKKNADPNVDYTVGDQFVEGREHAADDIRRRREQQRNEIRSLRHSVQGNDIDVSVDMEVEHNGKPSDFTQRIDVVAHNGKIKHQTAHQEG,-0.505
15,DHTKEARQVRRFVHALETGDPDRAASQLDKNAKVTVGDKRVHGRENVRTLMQEFIREADHFRLRDMRDDGEKFNLLIEFEVNGKRLRMHIDIVISNGTMKVVRFDPNVVKRMEN,0.144
16,DHTKIARRLMEDLTDARRHNDPHHVKNLLDKDVKIRVGDKSVDGEEEATKQMIERQRRADHIEMRIKSVSTHNGQLRIIFDVREVHNGQEHTDREEVQFDNENGKVRMVNVQQK,-0.056
17,DHTKQAETVARQMLEQLRDGNPEELKNMFDENVEADIGDTRYHGRESMVEFWQTILTRVDRNRLHIVDVQVQGNKIIVRVRVSFDRNGRQKEEEYVIVVRVNNGHYTADVVSLT,0.772
18,DHTVLEKAATALKQGDTDKMNKLADENVKMKVGDKEFHGRQQVNTALKRIKEQVDHRSIRSIENRGNRVTIDANVVVNGKHVDVNFILVVHNGRLKMFQIRVTDPQVHRRLSEIMS,0.722
19,DKDAAQLFHQYLEAKKHNNEDQLRENMDPNVQWTIGDKVITGREEAAKRMVDENREQRVEISHMQVHDNNGHAVFRADVRYKHNGKPSRSRFVVRVQARNGKIHSVKVERHS,0.076
20,DKDAARRFNEMLQQIHTGNEQEVSKLVDEDADVKVGEKDVHGREQIHSEVKKMRDELSYRVQVNEFDDRGDKIRFNIRVRKNTNGKPKTSRNNLTVVVHNGRIKEVKAESDG,0.095
21,DKDAARRVQEMIRQQQTGNPTEVEEQADKDVEFKVGDKVVHGRRELKKEVETHKRESRLEVQKIEIKDHGDKAKLIIYFRVHENGEPRKRTVQVRAKYQNGKVKMIEVDSTK,-0.006
22,DKDALRVFERFLEAVETNDPKQVQEQADPNAHFDIGDRTYHGMDEIATKMFEEQEKIHLSVQIRDVKDHGDKAVIKAEFSSERNGKPHSKTVRIEVQAHNGQMVKLVMTDDQ,-0.309
23,DKDAQKKATEFLTAWEQGNESQLQKLMDPNAKVEIGDKVIDGREDWNRWIRERLKRMRFEIKSVDVQVHGDNVDINIDARVNHNGKPDRMTAKFVMRVHNGRIKSMTQHNDK,1.29
24,DKDAVKRFEELLRALDTNNSEQVKDLLDKNVQFRVGDKVIHGMEEAVRRQIQHNNEIRVEKEIKSIDDHNGRIHVDMTREWEHNGQPRSEKVKFTIEMHNGRVQVDNQKVTS,-0.098
25,DKDDFKEAEHILRTGDPDEWSKMVDPNARAEVGDEEIHGKEEFDRWMQKKKKRVDHEQVKSVDFHGDKWRVVLVFNVNGRQADVVMVMQVHNGRLVYQVVRFRDHQVKDVVRKRLS,0.336

row,Sequence,protease stability score
1,DKDDLRRMHQLVTRNNPQKFKQQADKDAKVQYGDKTVTGMTDAARQMVKFWRQADHIEVKHVDVNGDKLNVVMRMNVNGRNLHMVVYYVVSNGHVRSASVTFTDPHQQEEFEKNAS,0.316
2,DKDDQKRFTDTATKILQHNNPEKMRELADKDARLVVGDRTYTGRRQIVRHMEHLFRRVDHVQIKHVDVRGDHVEIDAVLDYNGRKERMTFVFQAHNGRIKQVEVQTG,0.603
3,DKDERHRIAHRLNEAIRTGDPHQMLRLADKNVKVQIGEKDVRGKDAIDKYARDLRKKVDHIQLRSLDVQGEEITMTIVFNVNGRRETVVYHVDYHNGQVKRVMVRSK,0.043
4,DKDLIERDKQWWTAVRHNNPDRLSENVDENASVRIGDKEVHGRKDISRLIKHLRDTMHESYKIERVNKEEGRANIQASATRDHNGRPRTARVQVIVEAHNGRIKRIQVQFNS,-0.336
5,DKDTEQHFADSMNQIIEQGNPKKAMKLADKDVQMQIGDKTYKGREEMMKQIKRFWKHVDEIRVKDVKVNDGQININVILDFNGKKVEVRIVIHVHNGKIHELRVDPKDKEQFEK,1.09
6,DKEALDEIEKAARENDWEKLAKMADPNVTATIGNYRVHGRSQFEKWARRVRQEVDHIEVKSIDVHGEKARVNYVIVFNGHNVTAQVQIEAHNGHITYMEVDYTDEDQVRHVKDMLS,1.6
7,DKEALRVFEKMLQAQRTGNPQEVRKQVDENARFQVGDKTIQGRERFAEDVDRQRKNMRLDYKHIDNKDHNGQAQADAKVRVNVNGRPIEHSAQFHFSAHNGKLVQLHVQMDEDVRRQIEK,-0.233
8,DKEASDHATRIAQTNNPQKAVDKADPDVKATYGNKVYNGKNQARDVAKQFDEHFDRVEVKSVDNDGETVRADVRARFNGKTMEFTFVIVMSNGHVKMLFIDVRNPEDQEDLDRLLT,-0.188
9,DKEAVNIATRYMKAWEQGDSDTLMKLMDEDVRVHYGDKVLEGREDVSRDLKRLLDHAQFEIKHVTNKDNGSVVIVNFHMIVNVNGEPVEVKVVVHFHMHNGRIKQIVIRIDPKQLRQIKG,1.41
10,DKEDAEKVMKTMMKVVEKGDPEQLMKVGSEGVEYQAGDLKAHGPEALKQVMDYLQKHGVRLEIKHAEVEGNTVRTYVEYKNGEETDTVEANADVDGGKIDRVEVEVGERAEKWLKHG,-0.57
11,DKEDVDHLERIMRKGDWDQLKDHADKDVTVVVGDRNIHGREKANNFLKRFKERVDHQEVRRLDVSGNEVVVDMVFNVNGRKIRATVVAVAHNGRLKEVVMRFTSEDDKRRATEAFD,0.454
12,DKEDVKKRAEELAEVLQTGDPRKMRDLADKDARLSIGDKEYHGREEISKWVDHMRRDVDHFKLDDVQASGNKMRLTFVLQHNGRRSKFDLDVKYSNGRAKELRFDRK,0.267
13,DKEDWTRLTNVLEDNNEHQFQDMLDKDVKIDVGDKRIHGRERAKHFLRKYEREVDEITVYSINVSGDNVKVDRVAKHNGQSVRFVMVFRAHNGKVQEMRIEFRDERQKEIWNQLEQ,0.231
14,DKEEAKKILDKAVKAVENGNLEELKQMGKEGVEYELIDKKAHGPEVVHKVMEKLQRHGAELEFKRVQVEGDTVHTVVDYRVGDTEMRATAEATVQGGRIDKVRIEMSEEAQKTIKHG,-0.272
15,DKEEAQKVAEQMVKAIKNGNLDELADAGDDGVDYQVGDEKKRGREDIKRHVEKLQKAGVEMEVKEVRVEGNEVETKLTYKIGNTEVTVKVTVEVEGGKINRVEVRMSEEVEKTVRHG,-0.193
16,DKEEARKVLEELIKAVESGNPKDLKKYGKDGVKYRLGDREAHGPEAVYKQFEQIHRQGVELRFEDTKVEGDKVTTRVTYRNGDETYTVQIHAEVRGGKIDRVEADLSDKAKEVVKHG,-0.066
17,DKEEFEKTAKTFMKVWTNGDPDQWKELMDPNARLQIGDKEWHGREEVREAITQFHDRVDHIEVKDLKVTEDHVRLIAVVRFNGREVKVTVNIHFENGRATHVENHFTDDDQLKRNLS,-0.084
18,DKEELQHLIRLEEHNDWDKFARQAPPNATLQVGDRVVHGREEAVKFAEKLKKRVDHISIESIDRRGEKLQIVYTMVVDGKRVKAVVVLRASNGRAQSVVFQARDPHDQQVIKENLS,0.178
19,DKEELSWAKKVLEKNNWESLAENADENAKVDVGDKRYSGREQVEHLMNQLRRRVDHVEYKHIDSKGDKLVADFQVVVNGREVKVRLQMNVHNGRVRHLTMEARNEDDKRFLKEMLD,1.3
20,DKEENHMFQQAFTVEWTGDPEKVNRLMDPNAKIEVGEKRVHGMDKYAREVKREHDDMRVDVRTYSNDVHNGEVDVKVNYVKNNNGRPRHVSQSIRAHASNGKVKSVQVTERG,-0.299
21,DKEEVEKIAREALEAAVKGDEDKLKTYLGPDVKYVLGDQEYQGQQVAELVMKLIKKDGARLQLETLKVEGNTVQAQYQFHVDGVTRKAHITMKVKGGRVDEWQVHIDDHAKEALKKG,1.28
22,DKEEVHKLKHLLRHGDFEKINKKADKDARMQIGDRVYHGREKMKKALEILQREVDDIRVDSIKVSGDRVSAEMHMEVNGRRYVFVVVIRATNGRVVSLKVKARSESQDEHLKNLVE,0.625
23,DKEEVQRIVEEMLKFVESGDIKKLVDHGKEGVRYRLGDEEAHGPEAIKKMVVKMKKVGLRIEVKEYQVEGDTATTKLKYQLGDTEDTVEVNAQAQGGRIDQVNADVDKTAVDMIKQG,0.048
24,DKEHLKRMVETIIKILETGDPDKMKNLADENVRVEVGDKDVHGKDTLRKHIEEWRRQIDHLEVKSVRVKGNKASIHFVVRVNGTDKTVVVVFDIHNGKIKMVHYTDS,0.637
25,DKEIKDLARQVLTAEKTGDPEQFKKLFDPNVHVEVGDKTVTGREEASREFKKSQQELRIDMKSVSVTVEGNSVDIEIHAHLKVNGRPIDMHFRIILTFHNGKVHHVQLQVSEDQLRKMSQ,0.668
